Laboratory results published in patent US5998188.
One block for each molecule: values may come before it.

Biological target: MAP kinase (ERKs) of PC12 cells

Gal4-Elk-1 dependent luciferase activity induced by Raf BxB in PC12 cells (% of maximal levels): 90
Molecule: MKP-2 (rat mitogen-activated protein kinase phosphatase-2), full length, expressed from CMV-MKP-2 in PC12 cells

Gal4-Elk-1 dependent luciferase activity induced by Raf BxB in PC12 cells (% of maximally stimulated levels): > 60
B1: MKP-1, full length, expressed from CMV-MKP-1 in PC12 cells (enzyme)
chain: MVMEVGILDAGGLRALLREGAAQCLLLDCRSFFAFNAGHIAGSVNVRFSTIVRRRAKGAMGLEHIVPNAELRGRLLAGAYHAVVLLDERSASLDGAKRDGTLALAAGALCREARSTQVFFLQGGYEAFSASCPELCSKQSTPTGLSLPLSTSVPDSAESGCSSCSTPLYDQGGPVEILSFLYLGSAYHASRKDMLDALGITALINVSANCPNHFEGHYQYKSIPVEDNHKADISSWFNEAIDFIDSIKDAGGRVFVHCQAGISRSATICLAYLMRTNRVKLDEAFEFVKQRRSIISPNFSFMGQLLQFESQVLAPHCSAEAGSPAMAVLDRGTSTTTVFNFPVSIPVHPTNSALNYLKSPITTSPSC
